Laboratory results as given in patent publication US20220306746A1 (CHINA MEDICAL UNIVERSITY HOSPITAL, published 2022).

Tests used:
[1] = molecular target: T1, programmed cell death ligand 1 (PD-L1) on cells (UniProt Q9NZQ7 19-290, limits assumed); assay: flow cytometry on H1975 cells, FITC-labelled nanobody 1 ng/ml [b]
T1 construct: whole, on cells; H1975, A549 and MDA-MB-231 are human tumour cell lines; also called PD-L1 aAPC/CHO-K1 cells
Procedure: In this example, the procedures of flow cytometric analysis of the anti-PD-L1 nanobody are as follows. The anti-PD-L1 nanobody (1 ng/ml) was pre-stained with FITC fluorescein by Fastlink Fluorescein Labeling Kit (Abnova), the procedures were performed according to the manual instructions. […] After washing with PBS, the cells were analyzed by flow cytometry using FL1 channel.

[2] = molecular target: T1, programmed cell death ligand 1 (PD-L1) …; assay: cell-based or functional assay

T1 sequence (Q9NZQ7 19-290 limits assumed): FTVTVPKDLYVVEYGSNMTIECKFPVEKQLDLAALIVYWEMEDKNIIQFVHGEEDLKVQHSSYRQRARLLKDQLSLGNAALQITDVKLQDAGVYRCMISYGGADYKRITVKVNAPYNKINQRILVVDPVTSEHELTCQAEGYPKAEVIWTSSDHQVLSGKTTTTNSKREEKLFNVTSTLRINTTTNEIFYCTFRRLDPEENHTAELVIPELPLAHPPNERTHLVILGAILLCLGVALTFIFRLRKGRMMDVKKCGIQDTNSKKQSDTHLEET

| Binder | binding result [1] | EC50 (read off the curve) [2] [µg/mL] |
| --- | --- | --- |
| anti-PD-L1 nanobody clone #1 (VHH, Labelled with FITC for flow cytometry; also called PD-L1 nb) VHH: HVQLVESGGGLVQPGGSLRISCAASGFTFSSRAMSWVRQAPGKGLEWVSTINSDGSNTYYSDSVKDRFTISRDNAINTLYLQLNSLKTEDTAMYYCSRCPDIYCGGQYTYRGQGTQVTVSS | binds |  |
| anti-PD-L1 nanobody clone #67 (VHH) VHH: QVQLVESGGGLVQPGGSLRISCAASGFTFSSRAMSWVRQAPGKGLEWVSTVNSDGSNTYYSDSVKDRFTISRDNAINTLYLQLNSLKTEDTAMYYCSRCPDIYCGGQYTYRGQGTQVTVSS |  | ~3 |
